According to patent US20110206686A1 (published 2011):

Experiments:
human IL-23 [1] = molecular target: T1, human IL-23 (human, UniProt Q9NPF7 20-189; P29460 23-328); assay: blocking ELISA, optimised protocol (Example 6): antibody pre-incubated with constant human IL-23, binding to plate-coated human IL-23R Fc chimera detected with biotinylated anti-human IL-12, OD450; purified antibody
T1 construct: Heterodimer of p19 and p40; also called hIL-23; recombinant human IL-23
T1 sequence 1: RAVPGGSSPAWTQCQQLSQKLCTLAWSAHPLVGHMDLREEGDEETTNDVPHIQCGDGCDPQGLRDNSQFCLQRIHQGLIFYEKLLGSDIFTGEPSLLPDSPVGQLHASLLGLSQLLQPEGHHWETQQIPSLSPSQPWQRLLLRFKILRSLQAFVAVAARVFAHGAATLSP
T1 sequence 2: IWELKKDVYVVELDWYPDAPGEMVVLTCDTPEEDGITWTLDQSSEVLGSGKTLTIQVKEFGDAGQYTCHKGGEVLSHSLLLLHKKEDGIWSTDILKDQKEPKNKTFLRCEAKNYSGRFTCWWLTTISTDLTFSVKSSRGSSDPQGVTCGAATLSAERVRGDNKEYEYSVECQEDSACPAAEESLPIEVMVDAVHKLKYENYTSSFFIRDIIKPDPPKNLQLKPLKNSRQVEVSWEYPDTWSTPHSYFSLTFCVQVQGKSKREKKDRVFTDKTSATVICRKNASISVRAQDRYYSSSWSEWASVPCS
Protocol: Optimised protocol: Plates were coated with human IL23R Fc chimera at […] (phosphate buffered saline). 50 μl/well of this mixture was incubated overnight at 4° C. The plates were then washed three times with Phosphate Buffered Saline with 0.05% Tween 20 (PBST). Plates were blocked with 4% skim milk powder (Fluka BioChemika #70166) PBST 100 μl/well for a minimum of 1 hour at room temperature. The plates were then washed three times with Phosphate Buffered Saline+0.05% Tween 20 (PBST). Various concentrations of antibody were incubated in a separate plate with a constant concentration of IL-23 for 1 hour at room temperature. 50 ul of each mixture were transferred to the assay plate and incubated at RT for 1 hr. They were then washed three times with Phosphate Buffered Saline+0.05% Tween 20 (PBST). Bound IL23 was detected by anti human IL12 Biotin labelled Ab (R&D systems BAF219) diluted to 100 ng/ml in 4% skim milk powder (Fluka BioChemika #70166) PBST. 50 μl/well of the biotinylated antibody was added and incubated at RT for 1 hour. The plates were then washed three times with Phosphate Buffered Saline+0.05% Tween 20 (PBST). SA HRP (GE healthcare RPN4401) was diluted 1/4000 in 4% skim milk powder (Fluka BioChemika #70166) PBS, 50 μl/well was added to the plates. […] The plate was read at OD450 nm using the SOftmaxPRO versamax plate reader.

human IL-23 [2] = molecular target: T1, human IL-23; assay: blocking ELISA (Example 9): purified antibody pre-incubated with endogenous human IL-23 (3.5 ng/ml, from stimulated dendritic cells), binding to plate-coated recombinant human IL-23 receptor detected with biotinylated anti-human IL-12; 1% BSA
Protocol: (§1) Recombinant human IL-23 Receptor (R&D systems 1400-IR-050) was coated onto 96 well plates at a concentration of 1 μg/ml. Endogenous human IL-23 at 3.5 ng/ml final, was pre incubated for 1 hour with a titration of purified antibody material before being added to the pre-coated plates. Detection was performed with biotinylated anti-human IL12 (R&D systems BAF-219) followed by Streptavidin-HRP (GE Healthcare RPN 4401). This neutralisation ELISA used 1% BSA.

human IL-23 [3] = molecular target: T1, human IL-23; assay: blocking ELISA (Example 10): purified antibody pre-incubated with endogenous human IL-23 (5 ng/ml), binding to plate-coated recombinant human IL-23 receptor detected with biotinylated anti-human IL-12; 25% human pooled AB serum
Protocol: as §1, with “5” for “3.5”, “incubated” for “incubated for 1 hour”, “mAbs” for “antibody material”, “BAF-219),” for “BAF-219)”, “25% human pooled AB type serum. 8C92H₆, HC1LC1, and A3M0 retain their activity in human serum and inhibit binding of endogenous human IL-23 binding to human IL-23 receptor.” for “1% BSA.”

B1: A3N2 (antibody, human IgG1, kappa, V domains shown)
VH: QVQLVQSGAEVKKPGSSVKVSCKASGYTFTSYGITWVRQAPGQGLEWMGENYPRSGNTYYNEKFKGRVTITADKSTSTAYMELSSLRSEDTAVYYCARSEFISTVVAPYYYALDYWGQGTLVTVSS
VL: DIVMTQTPLSLSVTPGQPASISCKASKKVTIFGSISALHWYLQKPGQPPQLIYNGAKLESGVSDRFSDSGSGTDFTLKISRVEAEDVGVYYCLQNKEVPYTFGGGTKVEIKR
IC50 (read off the curve) (human IL-23 [1]): ~0.9 nM

B2: murine mAb 8C9 2H6 (antibody, V domains shown)
VH: QVQLQQSGAELARPGTSVKLSCKASGYTFTSYGITWVKQRTGQGLEWIGENYPRSGNTYYNEKFKGKATLTADKSSSTAYMELRSLTSEDSAVYFCARCEFISTVVAPYYYALDYWGQGTSVTVSS
VL: DIVLTQSPASLAVSLGQKATISCKASKKVTIFGSISALHWYQQKPGQPPKLIYNGAKLESGVSARFSDSGSQNRSPFGNQLSFTLTIDPVEADDAATYYCLQNKEVPYTFGGGTKLEIK
notes: Murine hybridoma antibody; also called 8C92H6 (mouse parental); murine 8C92H6 mAb
IC50 (read off the curve) (human IL-23 [2]): ~0.05 mg/L

B3: A3M0 (antibody, human IgG1, kappa, V domains shown)
VH: QVQLVQSGAEVKKPGSSVKVSCKASGYTFTSYGITWVRQAPGQGLEWMGENYPRSGNTYYNEKFKGRVTITADKSTSTAYMELSSLRSEDTAVYYCARSEFISTVVAPYYYALDYWGQGTLVTVSS
VL: DIVMTQSPDSLAVSLGERATINCKASKKVTIFGSISALHWYQQKPGQPPKLIYNGAKLESGVPDRFSGSGSGTDFTLTISSLQAEDVAVYYCLQNKEVPYTFGGGTKVEIKR
notes: Humanised, human gamma1 and kappa constant regions; also called A3M0 (humanised)
IC50 (read off the curve) (human IL-23 [3]): ~0.02 mg/L
